In US6806056B2, “Fluorescent capture assay for kinase activity employing an anti-phosphotyrosine antibody as both the capture agent and detecting agent” (Pharmacopeia Drug Discovery, Inc., priority 1999, dated 2004):

B1: IL-4: IL-4, used as a stimulus for Daudi or Ramos B-cells (protein, UniProt P05112 25-153, looked up)
Interleukin-4: HKCDITLQEIIKTLNSLTEQKTLCTELTVTDIFAASKNTTEKETFCRAATVLRQFYSHHEKDTRCLGATAQQFHRHKQLIRFLKRLDRNLWGLAGLNSCPVKEANQSTLENFLERLKTIMREKYSKCSS

Experiments:
Assay type in all cases: cell-based
[1] = test system: Jurkat cells; experiment: Anti-phosphotyrosine capture assay of tyrosine kinase activity after SDF-1α stimulation for various times; conditions: 37° C., 100 nM SDF-1α, various time intervals, FIG. 2
Description: (§1) 96-well polystyrene plates were coated with an anti-phosphotyrosine antibody, pY99 (Santa Cruz Biotech, Inc., Santa Cruz, Calif.), by adding 200 μl of an antibody solution in Tris buffered saline (TBS) pH 8.0 at a concentration of 2.5 μg/ml. The plates were incubated for three hours at room temperature. The plates were then rinsed and 300 μl of blocking solution, sold under the trademark, SUIPERBLOCK® (Pierce Chemical, Rockford, Ill.) was added and the plates were incubated for two hours. At this point, the plates may be stored at 4° C. for up to two weeks. […]
To assay the cell lysates for kinase activity, the plate was thawed at 37° C., and 100 μl of tris buffered saline with 0.1% Tween 20 was added to each well. […] Relative phosphorylated protein levels were detected by adding 100 μl of a 0.2 μg/ml solution of europium-chelate labeled anti-phosphotyrosine antibody in tris buffered saline (pH 8.0) to each well and allowing the plate to incubate for one hour with shaking. […] Enhancement Solution for measuring Eu^3+ (E. G. & G. Wallac, Turku, FI) was added and the amount of labeled antibody bound was measured using a time-resolved fluorescence plate reader, for example, a Wallac 1420, or Victor MLC (Wallac Oy, Turku, FI). […]

[2] = test system: Ramos B cells; experiment: Anti-phosphotyrosine capture assay (time-resolved fluorescence) of tyrosine phosphorylation in stimulated B-cells; conditions: ligand 100 ng/ml, 15 minutes, FIG. 1
Description: as §1
(§2) To assay the cell lysates for kinase activity, the plate was thawed at 37° C., and 100 μl of tris buffered saline with 0.1% Tween 20 was added to each well. […] Relative phosphorylated protein levels were detected by adding 100 μl of a 0.2 μg/ml solution of europium-chelate labeled anti-phosphotyrosine antibody in tris buffered saline (pH 8.0) to each well and allowing the plate to incubate for one hour with shaking. […] Enhancement Solution for measuring Eu^3+ (E. G. & G. Wallac, Turku, FI) was added and the amount of labeled antibody bound was measured using a time-resolved fluorescence plate reader, for example, a Wallac 1420, or Victor MLC (Wallac Oy, Turku, FI).

[3] = test system: Daudi B cells; experiment: as above; conditions: ligand 100 ng/ml, 15 minutes, FIG. 1
Description: as §1, §2

Molecule	tyrosine kinase activity (fluorescence) as time increases [1]	changes in tyrosine phosphorylation on stimulation [2]	changes in tyrosine phosphorylation on stimulation [3]
SDF-1α	decrease in kinase activity	–	–
B1	–	not significantly	not significantly
